# Laboratory results: the Immune Epitope Database (IEDB)
# pKd: −log10 of the molar value.
# How the values were obtained:
# Experiment in all cases: IEDB peptide-MHC binding, purified MHC/competitive/fluorescence; filed as Kd, often an IC50 or EC50 that approximates it; ≥ and ≤ were set here for values at or beyond the usual limits of such assays
# Settings in all cases: source organism: Entamoeba histolytica HM-1:IMSS
# [1] = biological target: HLA-A*01:01
# [2] = biological target: HLA-A*02:01
# [3] = biological target: HLA-A*02:03
# [4] = biological target: HLA-A*02:11
# [5] = biological target: HLA-A*02:12
# [6] = biological target: HLA-A*02:16
# [7] = biological target: HLA-A*02:19
# [8] = biological target: HLA-A*03:01
# [9] = biological target: HLA-A*11:01
# [10] = biological target: HLA-A*23:01
# [11] = biological target: HLA-A*30:01
# [12] = biological target: HLA-A*30:02
# [13] = biological target: HLA-A*66:01
# [14] = biological target: HLA-A*68:02
# [15] = biological target: HLA-B*07:02
# [16] = biological target: HLA-B*08:01
# [17] = biological target: HLA-B*14:02
# [18] = biological target: HLA-B*15:01
# [19] = biological target: HLA-B*39:01
# [20] = biological target: HLA-B*46:01
# [21] = biological target: HLA-B*51:01
# [22] = biological target: HLA-B*53:01
# [23] = biological target: HLA-B*57:01
# [24] = biological target: HLA-B*58:01
sequence,measurement,setting,value
EVRKAIEFV,pKd,[1],≤ 5.30
same,pKd,[2],≤ 4.70
same,pKd,[3],≤ 4.70
same,pKd,[4],≤ 4.70
same,pKd,[5],≤ 4.70
same,pKd,[6],≤ 4.70
same,pKd,[7],≤ 4.70
same,pKd,[8],≤ 4.70
same,pKd,[9],≤ 5.30
same,pKd,[10],5.88
same,pKd,[11],≤ 5.30
same,pKd,[12],≤ 5.30
same,pKd,[13],6.55
same,pKd,[14],≥ 9.00
same,pKd,[15],≤ 5.30
same,pKd,[16],≤ 5.30
same,pKd,[17],≤ 5.30
same,pKd,[18],≤ 4.70
same,pKd,[19],≤ 4.70
same,pKd,[20],≤ 4.70
same,pKd,[21],≤ 4.70
same,pKd,[22],≤ 5.30
same,pKd,[23],≤ 4.70
same,pKd,[24],≤ 5.30
